Test results published in patent publication US20030162190.

Tests used:
NF-kB p50 homodimer = NF-kB p50 homodimer (UniProt P19838); assay: EMSA; settings: only 'similar data was collected for p50'; method inferred
[1] = biological target: NF-kB p65 (RelA) homodimer (UniProt Q04206); assay: EMSA; settings: 1:1 stoichiometry; method inferred
NF-kB p65 (RelA) homodimer, sequence (Q04206 whole entry): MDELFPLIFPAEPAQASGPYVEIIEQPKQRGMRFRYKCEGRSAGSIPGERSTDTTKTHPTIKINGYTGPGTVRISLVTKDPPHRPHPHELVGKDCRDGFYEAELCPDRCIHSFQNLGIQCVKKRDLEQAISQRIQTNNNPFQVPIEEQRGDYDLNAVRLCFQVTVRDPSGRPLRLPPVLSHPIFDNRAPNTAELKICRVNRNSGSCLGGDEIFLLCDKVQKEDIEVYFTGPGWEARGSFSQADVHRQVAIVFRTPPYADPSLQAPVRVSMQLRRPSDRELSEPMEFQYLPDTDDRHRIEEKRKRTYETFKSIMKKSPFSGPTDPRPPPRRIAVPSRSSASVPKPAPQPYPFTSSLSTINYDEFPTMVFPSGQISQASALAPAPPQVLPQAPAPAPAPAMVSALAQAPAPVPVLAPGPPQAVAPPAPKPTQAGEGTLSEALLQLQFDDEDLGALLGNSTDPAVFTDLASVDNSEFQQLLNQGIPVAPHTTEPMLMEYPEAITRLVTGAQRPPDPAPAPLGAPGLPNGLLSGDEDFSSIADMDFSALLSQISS

NF-kB p50 homodimer, sequence (P19838 1-433): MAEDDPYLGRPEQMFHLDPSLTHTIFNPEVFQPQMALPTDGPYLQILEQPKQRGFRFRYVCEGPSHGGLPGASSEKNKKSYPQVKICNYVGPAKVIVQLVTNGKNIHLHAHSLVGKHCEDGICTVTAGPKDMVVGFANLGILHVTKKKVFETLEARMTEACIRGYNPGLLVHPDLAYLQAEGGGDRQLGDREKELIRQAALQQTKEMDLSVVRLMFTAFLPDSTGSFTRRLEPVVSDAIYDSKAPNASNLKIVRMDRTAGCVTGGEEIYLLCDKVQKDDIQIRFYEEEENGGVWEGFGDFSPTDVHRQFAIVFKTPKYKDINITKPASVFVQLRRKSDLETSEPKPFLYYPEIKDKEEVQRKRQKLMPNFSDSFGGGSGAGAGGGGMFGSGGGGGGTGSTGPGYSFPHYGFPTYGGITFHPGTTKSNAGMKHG

IgkB 22-mer promoter site
Kd (NF-kB p50 homodimer): 4 nM
Kd [1]: 4 nM
